The target in assay [1] is T1, CD40/Fc fusion protein (human, UniProt P25942 21-193).
T1 construct: extracellular domain; also called C40/Fc; s CD40/Fc; not shown: remainder of the human IgG1 Fc region, joined at a Bgl II site near the beginning of the hinge
Description: biosensor assay substantially as Example 22 (captured CD40/Fc); yeast-expressed protein. Here is the method: The biosensor chips were coated with goat anti-human IgG_1 Fc, which was used to bind CD40/Fc (prepared as described in Example 1) to the chip. The different constructs of CD40-L were then added at increasing concentrations; the chip was regenerated between the different constructs by the addition of sodium hydroxide. Two separate experiments were performed. In the first, the binding of a dimeric human CD40-L (Example 14), trimeric human CD40-L (Example 15), dimeric murine CD40-L (prepared substantially as described in Example 14 for human CD40-L/FC) and trimeric murine CD40-L (prepared substantially as described for the human CD40-L in Example 15) were compared. In the second experiment, the binding of trimeric human CD40-L was compared to the binding of two different preparations of monomeric human CD40-L prepared as described in Example 18. The resultant data were analyzed to determine the affinity and association rate constants of the different CD40-L constructs. Results are shown in Table 12 below, and in FIGS. 19A–19B
[a]Mutations are given as the residue present in the native peptide, the residue number, and the residue present in the mutein. Residue numbers for zipper domain mutations are relative to SEQ ID NO: 17. [b]Residue numbers for mutations in the CD40L domain are relative to SEQ ID NO: 12. […]

Assay [2] has as its target T1, CD40/Fc fusion protein. Description: biosensor (BIAcore), CD40/Fc captured by goat anti-human IgG1 Fc; experiment 1; K1 (site 1). The method, then: (§1) This example illustrates the binding affinities of several different CD40-L constructs. Affinity experiments were conducted by biospecific interaction analysis (BIA) using a biosensor, an instrument that combines a biological recognition mechanism with a sensing device or transducer. An exemplary biosensor is BIAcore™, from Pharmacia Biosensor AB (Uppsala, Sweden; see Fägerstam L. G., *Techniques in Protein Chemistry II*, ed. J. J. Villafranca, Acad. Press, NY, 1991). BIAcore™ uses the optical phenomenon surface plasmon resonance (Kretschmann and Raether, *Z. Naturforschung, Teil. A* 23:2135, 1968) to monitor the interaction of two biological molecules. Molecule pairs having affinity constants in the range 10^5 to 10^10 M^-1, and association rate constants in the range of 10^3 to 10^6 M^-1s^-1, are suitable for characterization with BLAcore™.
(§2) The biosensor chips were coated with goat anti-human IgG_1 Fc, which was used to bind CD40/Fc (prepared as described in Example 1) to the chip. The different constructs of CD40-L were then added at increasing concentrations; the chip was regenerated between the different constructs by the addition of sodium hydroxide. Two separate experiments were performed. […] The resultant data were analyzed to determine the affinity and association rate constants of the different CD40-L constructs. […]

Assay [3] deals with T1, CD40/Fc fusion protein. Description: biosensor (BIAcore), CD40/Fc captured by goat anti-human IgG1 Fc; experiment 1; K2 (site 2). The method, then:
as §1, §2

Assay [4] concerns the target T1, CD40/Fc fusion protein. Description: biosensor (BIAcore), CD40/Fc captured by goat anti-human IgG1 Fc; experiment 1. The method, then: as §1, §2
(In SPR one partner is held on a chip, and binding of the other changes the refractive index at the surface.)

Consider two molecules from patent US6410711.

T1 sequence (P25942 other isoform, or with tags, fused parts or gaps limits assumed): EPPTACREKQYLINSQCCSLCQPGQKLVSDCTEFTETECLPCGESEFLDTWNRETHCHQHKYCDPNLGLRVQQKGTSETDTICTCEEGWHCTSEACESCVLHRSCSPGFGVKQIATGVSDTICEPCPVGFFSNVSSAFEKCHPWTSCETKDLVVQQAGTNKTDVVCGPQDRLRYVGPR

B1: wild type CD40 ligand/zipper domain fusion protein (WT) expressed in yeast (ligand)
chain: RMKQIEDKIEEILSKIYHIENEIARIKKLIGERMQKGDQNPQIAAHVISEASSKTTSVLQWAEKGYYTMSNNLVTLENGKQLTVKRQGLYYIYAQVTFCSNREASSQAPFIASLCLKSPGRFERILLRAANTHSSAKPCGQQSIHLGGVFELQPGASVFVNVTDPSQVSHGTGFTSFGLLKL
For B1, the Ka with CD40/Fc fusion protein [1] worked out at 7.7e+07 M⁻¹.

B2: trimeric murine CD40-L (ligand)
chain: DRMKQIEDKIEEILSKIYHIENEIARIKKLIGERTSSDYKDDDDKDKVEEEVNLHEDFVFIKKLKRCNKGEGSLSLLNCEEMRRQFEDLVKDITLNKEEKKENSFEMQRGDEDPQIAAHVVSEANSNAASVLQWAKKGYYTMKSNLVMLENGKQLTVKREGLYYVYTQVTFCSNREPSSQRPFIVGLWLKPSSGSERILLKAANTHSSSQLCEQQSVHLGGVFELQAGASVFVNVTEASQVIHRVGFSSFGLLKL
notes: The leader is not part of the secreted protein; Made in CHO cells; also called Murine Trimer; muCD40LT
B2: the Ka with CD40/Fc fusion protein [2] was found to be 6e+10 M⁻¹; with CD40/Fc fusion protein [3], 1.6e+08 M⁻¹. Further, in the assay with CD40/Fc fusion protein [4], the “Site 1 (mol/mol CD40/Fc)” value stood at 0.02 mol/mol CD40/Fc. Further, in the assay with CD40/Fc fusion protein [4], the “Site 2 (mol/mol CD40/Fc)” value was determined as 0.44 mol/mol CD40/Fc.
